# Reference: patent US20210032291A1 (University of Pennsylvania, published 2021)
# Bridge positions count the residues as written; N and C are the ends. Square brackets hold non-standard residues; d marks the D form. Ends that are not written are not given here. Trp(1-Me) = Cn1cc(C[C@H](N)C(=O)O)c2ccccc21; NMeI = CC[C@H](C)[C@H](NC)C(=O)O; Orn = NCCC[C@H](N)C(=O)O; Sar = CNCC(=O)O
# B1: Peptide 2: Gly-Ile-[Cys-Val-Trp(Me)-Gln-Asp-Trp-Sar-Ala-His-Arg-Cys]-mIle-NH2 (peptide)
# peptide: GICV[Trp(1-Me)]QDW[Sar]AHRC[NMeI]-NH2
# modifications: disulfide 3-13; N-terminus assumed
# SMILES: CC[C@H](C)[C@H](NC(=O)CN)C(=O)N[C@H]1CSSC[C@@H](C(=O)N(C)[C@H](C(N)=O)[C@@H](C)CC)NC(=O)[C@H](CCCNC(=N)N)NC(=O)[C@H](Cc2c[nH]cn2)NC(=O)[C@H](C)NC(=O)CN(C)C(=O)[C@H](Cc2c[nH]c3ccccc23)NC(=O)[C@H](CC(=O)O)NC(=O)[C@H](CCC(N)=O)NC(=O)[C@H](Cc2cn(C)c3ccccc23)NC(=O)[C@H](C(C)C)NC1=O
# B2: Compstatin 30 (Cp30): Sar-Ile-[Cys-Val-Trp(Me)-Gln-Asp-Trp-Sar-Ala-His-Arg-Cys]-mIle-NH2 (peptide)
# peptide: GICVWQDWGAHRCI
# modifications: Sar (N-methyl-Gly) at Xaa0 (N-terminus); Trp(Me) at position 4; Sar at position 8; mIle at position 13; C-terminal -NH2; cyclic via Cys2-Cys12 disulfide (compstatin position numbering)
# B3: Peptide 1: Me-Ile-[Cys-Val-Trp(Me)-Gln-Asp-Trp-Sar-Ala-His-Arg-Cys]-mIle-NH2 (peptide)
# peptide: Me-ICVWQDW[Sar]AHRC[NMeI]-NH2
# modifications: disulfide 2-12; not fully specified (residue 4); printed as Me-Ile-[Cys-Val-Trp(Me)-Gln-Asp-Trp-Sar-Ala-His-Arg-Cys]-mIle-NH2
# B4: Cp40 (6Asn) (peptide)
# peptide: [dY]ICV[Trp(1-Me)]QNW[Sar]AHRC[NMeI]-NH2
# modifications: disulfide 3-13; N-terminus assumed
# SMILES: CC[C@H](C)[C@H](NC(=O)[C@H](N)Cc1ccc(O)cc1)C(=O)N[C@H]1CSSC[C@@H](C(=O)N(C)[C@H](C(N)=O)[C@@H](C)CC)NC(=O)[C@H](CCCNC(=N)N)NC(=O)[C@H](Cc2c[nH]cn2)NC(=O)[C@H](C)NC(=O)CN(C)C(=O)[C@H](Cc2c[nH]c3ccccc23)NC(=O)[C@H](CC(N)=O)NC(=O)[C@H](CCC(N)=O)NC(=O)[C@H](Cc2cn(C)c3ccccc23)NC(=O)[C@H](C(C)C)NC1=O
# Biological target: T1, C3 protein (target in the classical-pathway complement activation ELISA)
# Assay: cell-based or functional assay
row,Binder,"IC50, peptide concentration to reach 50% inhibition of classical pathway complement activation (ELISA)"
1,YICV[Trp(1-Me)]QDW[Sar]AHRC[NMeI]-NH2 (disulfide 3-13) [Peptide 4: Tyr-Ile-[Cys-Val-Trp(Me)-Gln-Asp-Trp-Sar-Ala-His-Arg-Cys]-mIle-NH2],72 nM
2,B1,113 nM
3,B2,82 nM
4,Ac-ICV[Trp(1-Me)]QDWGAHRCT-NH2 (disulfide 2-12) [4(1MeW): Ac-Ile-[Cys-Val-Trp(Me)-Gln-Asp-Trp-Gly-Ala-His-Arg-Cys]-Thr-NH2],132 nM
5,B3,180 nM

# Biological target: T1, C3 protein (target in the …)
# Assay: cell-based or functional assay
# Remark: another data set of the same source
row,Binder,"IC50, peptide concentration to reach 50% inhibition of classical pathway complement activation"
1,[dY]ICV[Trp(1-Me)]QNW[Sar]AH[Orn]C[NMeI]-NH2 (disulfide 3-13) [Cp40 (11Orn 6Asn)],0.36 nM
2,[dY]ICV[Trp(1-Me)]QDW[Sar]AH[Orn]C[NMeI]-NH2 (disulfide 3-13) [Cp40 (11Orn)],0.22 nM
3,B4,0.26 nM
